According to article PMC4605311, “Structure of mitochondrial poly(A) RNA polymerase reveals the structural basis for dimerization, ATP selectivity and the SPAX4 disease phenotype” (Nucleic Acids Research, 2015):
Where a chain is given by its changes, count along the chain named. In names and notes the source's numbering stands.

B1: chicken mitochondrial poly(A) RNA polymerase, mature wild type (residues 37–568) (enzyme, Gallus gallus, UniProt F1NBW0 37-568, looked up)
chain: AGGAEETDAEVSARKKTFTEVQTERLEQADRSVLIKCPSKLNEKKLLQYLSSHGKIDNYFFFENRGIHALIEFSEKSSVASLQAVTGIPKAAEHHVVPYKSRLFTFTLKNPGSQAAEERPVKISPQSHIPVNELIPKLCHADSISSQMYILLNEYQLTEENIKLRYLACSLVRDFARAYFPDSTVKPFGSSVNTFGKLGCDVDMFLDFHDIQKHATKMKKGPFEMEYQMKRLPSERLATQKILSIIGDCLDNFGPGYSSVQKILNARCPLVKFSHQPTGFQCDLSVSNSIAIRCSELLYIYGCLDPRVRALVFSLRCWARVHGLTNSVPGTWITNFSLTMMIMFFLQKRSPPIIPTLDQLKELADEKDKHVIGGYDCSFVSDLSKIKPTKNTETLDELLCDFFQYFGNFDFRKNSLNLRKGKEVNKPESSPLYIWNPFEQDLNISKNVNQPQLEKFVAMARESAWILQKEDKTQQMINKEPWGLAAVLIPFGKSNPNTMKSRTKGIGSETIKSLLDSLKLSDANNLQKAVGK
notes: Expression construct pNIC28-BsaI; also called mtPAP; WT mtPAP; source: E. coli KRX/pRARE2, purified (HisTrap, TEV cleavage, HiTrap Heparin)
B2: chicken mtPAP K112E mutant (enzyme, Gallus gallus, UniProt F1NBW0 37-568, looked up)
chain: B1 chain with K76E
notes: mitochondrial poly(A) polymerase (mtPAP), Gallus gallus, residues 37-568, K112E
B3: chicken mtPAP R272E mutant (enzyme, Gallus gallus, UniProt F1NBW0 37-568, looked up)
chain: B1 chain with R236E
notes: mitochondrial poly(A) polymerase (mtPAP), Gallus gallus, residues 37-568, R272E
B4: chicken mtPAP N472D mutant (residues 37–568) (enzyme, Gallus gallus, UniProt F1NBW0 37-568, looked up)
chain: B1 chain with N436D
notes: mitochondrial poly(A) polymerase (mtPAP), Gallus gallus, residues 37-568, N472D (counterpart of human N478D); Purified by the same procedure as the wild type; also called N472D mtPAP; SPAX4 N472D mtPAP mutant; source: E. coli KRX/pRARE2, purified (HisTrap, TEV cleavage, HiTrap Heparin)
B5: chicken mtPAP triple mutant K76E, K80–81E (enzyme, Gallus gallus, UniProt F1NBW0 37-568, looked up)
chain: B1 chain with K40E, K44E, K45E
notes: mitochondrial poly(A) polymerase (mtPAP), Gallus gallus, residues 37-568, charge-reversal triple mutant; The methods list K80–81E and K76E apart; the results call it a triple mutant

Legend:
[1] = biological target: the molecule itself; test: crystal structure; hanging drop, 0.2 M NaCl, 0.1 M Bis-Tris pH 5.5, 20–23% PEG 3350; apo crystals and crystals soaked with 10 mM MgCl2 and 10 mM nucleotide; two mtPAP molecules in the asymmetric unit
[2] = biological target: the molecule itself; test: SEC; Superdex-200 elution profiles of WT and mutated mtPAP proteins

Protein | binding result [2] | also measured
B1 |  | stoichiometry N [1]: 2
B2 | binds | 
B3 | binds | 
B4 |  | binding result [1]: binds
B5 | binds | 
